Experimental findings from PMC6735865 (Nucleic Acids Research, 2019) are described below.

The assay concerns the target human METTL5, C-terminally His6-tagged (human, UniProt Q9NRN9). The experiment in a line: pull-down.

Sequence of human METTL5, C-terminally His6-tagged (Q9NRN9 whole entry): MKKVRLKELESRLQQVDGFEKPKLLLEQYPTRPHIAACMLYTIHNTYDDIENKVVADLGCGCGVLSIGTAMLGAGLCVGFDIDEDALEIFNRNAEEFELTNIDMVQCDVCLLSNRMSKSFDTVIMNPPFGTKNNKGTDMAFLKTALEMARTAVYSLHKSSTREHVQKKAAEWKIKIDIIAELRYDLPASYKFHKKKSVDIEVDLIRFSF

B1: human TRMT112, untagged (natural protein)
chain: MKLLTHNLLSSHVRGVGSRGFPLRLQATEVRICPVEFNPNFVARMIPKVEWSAFLEAADNLRLIQVPKGPVEGYEENEEFLRTMHHLLLEVEVIEGTLQCPESGRMFPISRGIPNMLLSEEETES
Consider B1, for which the binding result is “binds”.
